From the supplement of paper PMC9170038

Tested on: MS2 coat protein
Experiment: apparent KD of MS2 coat protein; higher = weaker reporter binding
Conditions: Eterna round: R107
Summary of the method: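 Apparent KD is reported per design as the median of normalised binding-curve fits across its clusters. The RNA switches were made by on-chip transcription from Illumina sequencing clusters. SNAP-549-labelled MS2 coat protein was then added in twofold steps (0.7 or 1.5 nM to 3 µM; 0.8–1.5 h to 10–20 min per step) in 100 mM Tris-HCl pH 7.5, 80 mM KCl, 4 mM MgCl2, without or with constant ligand.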

[1] = input ligand: theophylline 20 uM
[2] = input ligand: theophylline 2 mM
[3] = input ligand: tryptophan 2.4 mM

## AUACAUGAGGAUCACCCAUGUCCUCGUGAUCGAGGACCGGUACGGCCGCCACUCGGUCCUCGCGAGGUGGAGUCAAAGACUCCAA [Omei Trp A SS A v5]
Input ligand: arginine 13.2 mM
  apparent KD of MS2 coat protein: 109 nM
[1]
  apparent KD of MS2 coat protein: 166 nM
[2]
  apparent KD of MS2 coat protein: 137 nM

## UAUUUGGUGCGCGAGCGUUGGAUAAUUGAUACCAGUGAAGAAGAGCGCCCUUGGCAGCGAAUCCUAACAUGAGGAUCACCCAUGU [5.S]
Input ligand: arginine 13.2 mM
  apparent KD of MS2 coat protein: 38.2 nM
[1]
  apparent KD of MS2 coat protein: 63.2 nM
[3]
  apparent KD of MS2 coat protein: 41.4 nM

## GCUGCAGCUACGGCCGCCACUGUUACGUGAGACAUGAGGAUCACCCAUGUUGAUGUUUUACAGAAUAGGACCGGGUAGUUGUAGU [E 1.1]
Input ligand: arginine 13.2 mM
  apparent KD of MS2 coat protein: 8.84 nM
[1]
  apparent KD of MS2 coat protein: 11.3 nM
[2]
  apparent KD of MS2 coat protein: 9.87 nM

## GGGAGGGAGGCGGCCGCCACUGAUUUUCAUAUAUAUAUAACAUGAGGAUCACCCAUGUGGAUAUGCAGGACCGGGCCUUUUUUUU [aaaJ]
Input ligand: arginine 13.2 mM
  apparent KD of MS2 coat protein: 123 nM
Input ligand: none
  apparent KD of MS2 coat protein: 22.2 nM
[1]
  apparent KD of MS2 coat protein: 18.8 nM
[2]
  apparent KD of MS2 coat protein: 13.2 nM
[3]
  apparent KD of MS2 coat protein: 20.2 nM

## AUGUCGUUGAAUAUAGCGGCUUGGUGUGAUACCAGAAUGAUCAAAUUCCCUUGGCAGCAUUACAUGAGGAUCACCCAUGUUUAGG [SSTheo A #18]
Input ligand: arginine 13.2 mM
  apparent KD of MS2 coat protein: 18.6 nM
[1]
  apparent KD of MS2 coat protein: 30.2 nM
[3]
  apparent KD of MS2 coat protein: 29.3 nM

## ACAUGAGGAUCACCCAUGUAAAUAACGGAAGGAGCGUGCAAAAGCACAGGUAGGUCGCCGAUAUAAAUAUUGGGUAUUAUAUUAU [AstrosExyArgA#2]
Input ligand: arginine 13.2 mM
  apparent KD of MS2 coat protein: 23.9 nM
Input ligand: none
  apparent KD of MS2 coat protein: 33.6 nM
[1]
  apparent KD of MS2 coat protein: 39.3 nM
[2]
  apparent KD of MS2 coat protein: 29 nM
[3]
  apparent KD of MS2 coat protein: 28.5 nM

## GGACUAACCAGAAGGAGCGGCGCGCAGAAACUGCAAUUUCCUCCACACGAGGAUCACCCGUGUCAGGUAGGUCGCUGGUUAGUCG [ArgBX 29]
Input ligand: arginine 13.2 mM
  apparent KD of MS2 coat protein: 13.1 nM
Input ligand: none
  apparent KD of MS2 coat protein: 11.4 nM
[1]
  apparent KD of MS2 coat protein: 15.1 nM
[2]
  apparent KD of MS2 coat protein: 12.9 nM
[3]
  apparent KD of MS2 coat protein: 12.3 nM

## ACGGAGAUGUCGGCCGCCACUGAACUCAUGUUCAACAUGAGGAUCACCCAUGUACCUUAGUUUAUCAGGACCGGGACAUAUACGA [JR_ExcTryptoB_Sub003]
Input ligand: arginine 13.2 mM
  apparent KD of MS2 coat protein: 79.7 nM
[1]
  apparent KD of MS2 coat protein: 170 nM
[2]
  apparent KD of MS2 coat protein: 183 nM

## AUAACAUGAGGAUCACCCAUGUAAGCUGAAGGAGCGCUGGAAACAGCAGGUAGGUCGCAGCAUGUUUCCAAUCCUCAUGGAAACA [(M1)-(M2)-(Arg1)-(Arg2)-(A)'-(M)'-(A)''_Design9]
Input ligand: arginine 13.2 mM
  apparent KD of MS2 coat protein: 53.4 nM
Input ligand: none
  apparent KD of MS2 coat protein: 152 nM
[1]
  apparent KD of MS2 coat protein: 159 nM
[2]
  apparent KD of MS2 coat protein: 136 nM
[3]
  apparent KD of MS2 coat protein: 105 nM

## UGUGCAGGAUGCGUAAAGGGUCUUGCGCAUCGAGGACCGGUACGGCCGCCACUCGGCUGUACAUGAGGAUCACCCAUGUCAGGGU [#1 Same State - Tryptophan A Attempt #19 (HarryS)]
Input ligand: arginine 13.2 mM
  apparent KD of MS2 coat protein: 87.1 nM
Input ligand: none
  apparent KD of MS2 coat protein: 477 nM
[1]
  apparent KD of MS2 coat protein: 445 nM
[2]
  apparent KD of MS2 coat protein: 1830 nM
[3]
  apparent KD of MS2 coat protein: 533 nM

## CUCCCGUGAGCGGCCGCCACUGGAGGCUUUGCGCGACAUGAGGAUCACCCAUGUGUGCCCGGCGUUAGGACCGGGUUCGCGUGAG [#1 Same State - Tryptophan B Attempt #16 (HarryS)]
Input ligand: arginine 13.2 mM
  apparent KD of MS2 coat protein: 8.8 nM
Input ligand: none
  apparent KD of MS2 coat protein: 12.3 nM
[1]
  apparent KD of MS2 coat protein: 13.9 nM
[2]
  apparent KD of MS2 coat protein: 11.2 nM
[3]
  apparent KD of MS2 coat protein: 11.2 nM

## AAACUGGGUGUAAAAUAAAUAAUCACUGAUACCAGACUAUAGUAUGUCCCUUGGCAGCAGAAACAUGAGGAUCACCCAUGUAAUA [JR_Nu_ExcTheophyA_Sub024]
Input ligand: arginine 13.2 mM
  apparent KD of MS2 coat protein: 22.3 nM
[1]
  apparent KD of MS2 coat protein: 23 nM
[3]
  apparent KD of MS2 coat protein: 25.2 nM

## GUCGGAGUCGGAAGGAGCGACAUGAGGAUCACCCAUGUCUCCCGUUAUGGGAGUUCCUUAGGUCAGGUAGGUCGCCGACUCCGAC [#1 Exclusion - Arginine B Attempt #24 (Inspired by Omei)]
Input ligand: arginine 13.2 mM
  apparent KD of MS2 coat protein: 104 nM
Input ligand: none
  apparent KD of MS2 coat protein: 190 nM
[1]
  apparent KD of MS2 coat protein: 202 nM
[2]
  apparent KD of MS2 coat protein: 234 nM
[3]
  apparent KD of MS2 coat protein: 240 nM

## UGGCGAGAAGGAAGGAGCGUCAGCUGAGUCACAUGAGGAUCACCCAUGUAGCACAUAGUGUGACAGGUAGGUCGCCUUCUGCCCU [SS-ArgB17]
Input ligand: arginine 13.2 mM
  apparent KD of MS2 coat protein: 13.5 nM
Input ligand: none
  apparent KD of MS2 coat protein: 10.3 nM
[1]
  apparent KD of MS2 coat protein: 15.4 nM
[2]
  apparent KD of MS2 coat protein: 10.8 nM
[3]
  apparent KD of MS2 coat protein: 9.41 nM

## ACAUGAGGAUCACCCAUGUGGCGACUUGAUACCAGACCCGCACUAGUCCCUUGGCAGCAACUACGUGAGGGUCACCCAUGUGAAG [vndullin]
Input ligand: arginine 13.2 mM
  apparent KD of MS2 coat protein: 35.5 nM
Input ligand: none
  apparent KD of MS2 coat protein: 20 nM
[1]
  apparent KD of MS2 coat protein: 29.3 nM
[2]
  apparent KD of MS2 coat protein: 28.9 nM
[3]
  apparent KD of MS2 coat protein: 18.3 nM

## AAUAGUCCUCGACAUGGGUAUCACCCAUGUCGAGGACCGGUACGGCCGCCACUCGACAUGAGGAUCACCCAUGUUGAGUGAUAAA [prototype 1.1]
Input ligand: arginine 13.2 mM
  apparent KD of MS2 coat protein: 12.2 nM
Input ligand: none
  apparent KD of MS2 coat protein: 9.57 nM
[1]
  apparent KD of MS2 coat protein: 13.7 nM
[2]
  apparent KD of MS2 coat protein: 9.31 nM
[3]
  apparent KD of MS2 coat protein: 9.09 nM
